# Experiment: label from the status in PepcDB records
row,Sequence,protein production
1,MNELLLITFSPLVAGVLAWLVRIRGVRESLGILGAIVPLAFLIKLYPSLDHPIRATISLGGFELGFSMSHLNWVFSMIAAVVGLSAVFGMASTAKDSYEWLFSLMSLTGALGIFMAQDLVTFFIFWEVMTFSSFMMVLKFNRAASLKYLILSIIGAYSMLVAIGIIYAKTGTFTFADISAFFRKEAMLAMLGGKSTFSRFDMALIYLLFLMAFGVKAGMFPLHVWAPDAYSETDQSYTAIFSGVLSKTGVYGFILLYVLMYGKLLIDLGQFKGTPLFGYIIAFLGGLTIIIGGVLAALQEDIRKLFAYSSISQVGYILVGLGIGTSLGIEAAIYHAISHALFKGLFFLVVATIIYRTGKTEFKDFGGLAEKMPFTFAMAFIAILSLAGIPPLVGFASKWLIFEAVISQKLPILGGMLFFGSAIGFVYLIRFTYAVWFGQRPSDIEDTKDAPLPLAIGMGILGTLNVVFGVAPGLVAKELNAIFGNPVIGGNIWELDLGFGRYNALLVAIWLVIGVLIAAILYFLGASTRKVPVTDTYQSGNPVTMEYNLTIRRNFFLPLKETMAFWLRISFDKLYKDTWKAIEDFAETARNYIYNGNVQAYAWYLAIILLILAAMGV,failed
2,MNEPLHLYVHIPFCLKKCRYCSFVSRSDAPLAIDDYASLVAREMEMRVAAANPLPLSPATTLYLGGGTPSLLSPAALERIIDAAARSYGLGPGAEITLEANPGTVTFQRLADFRSAGVNRLSLGVQSFDDGMLVLLGRLHTARQAREAVAATRRAGFDNIGIDLIHSLPGQTPDQWREQLACAVALNPDHVSAYGLTVEEGTPFAAMEERGELVLPDEEQSALMFEATTDVLVSAGFEHYEIANFARPHRRSRHNQVYWLRRNYLGFGAGAHSFLRAPAFGVRWKNTDDLELYRDTLAAAELPGEERTVLSRADAMAEFFFLGLRLLDGVREEDFVREFGDTMENVYGREMERLCSAGLLMREGGRLKLSRRGVILANRVFASFL,failed
3,MNEQIDPFYEAKQEVDISVNKLQSLYNNWNNIPDKSSISAREKYNLIKEEIKYLNEDLNDLDNSVNIVKKNSYKFNISSQEIEERTQSLRIIRNLLNEITNNINNNVLSYNNNTNNDYNSVILKRQDNDLEELAESAERLHHAAITINTELKDQQKLLDELENEMDISSNEYKMDIYSIYIFVYFEFS,failed
4,MNESAGGRTPVPPAAWVFGLSTLIPFFIASGLFCYGPVAIRKSALLGLLAYSAAMVSYFGGVRTGLEIENPSPRWSVLGISLLFPLAGFGLLLGGLKFEAAWQLSGFLLVFLLQWVWDVTDHEGPSWRPRMRTLMTAGAAISLAFALEQALHM,failed
5,MNEYFFPKLTAVEALAPYRLRTTWSTGEVLEVDVGDILRKIPDLAPILDPEAFARVHIAEWEGSVEWFDTEFGRDNVYAWAKEQAGEVSHEMFGDWMHRNNLSLTTAAEALGISRRMVSYYRTAHKIIPRTIWLACLGWEATRPETKTLPRTLPAAYAKGVSASLS,not failed
6,MNEYQIKFKEDCYYAENNAGKVIGELLYSKIKQGKVISINQVRVDPLFRNRGIAGKLLKKAVDDAVKNGQLIKAVCSFSKKAFLQNKNYQKYEYKEN,failed
7,MNFDSYIFDFDGTLIDTTTCHVKATQSAFKRLNLDEPTEQAILHTYHLNLYNNFKALASHELSFYQIEKLIDEYNHCFSNDEIHQSKEYTGISEVLKFLHNQKKKIFVVSNKETLTTQKYLDYLGLSRFITDSLGVCIKNEDKLLCETIQNLIQKHHLMIGKTVYIGDTAQDIKSANQAHVQTCAVTWGAQSAHELLHEDPHYVVNDPEEFLTIL,failed
8,MNFEGIIIAAISFFIIGIFHPIVIKLEYYLTKNIWPLFLILGIIFIIISLFQKQTVAAAIMGIIGATCIWSIKEIFEQEKRVQKGWFPKNPRKK,failed
9,MNFFKILLMELRAIVSHKGVLLILIGAPLIYGLLYPLPYLRDIVTQQKIALVDEDNSFLSRQLAFMAQSSNELEIAFFSPSMLEAKKLLKEEKIYGILHIPSHFEANIHKQVPVTIDFYANSNYFLIYGALANAVVESINALNDEIRFKRNAQIEEAELGTDGIKIRPIALYNPSEGYLNYALSSVFIFILHQVMLIASSMFTSSRRLELALLDRKQIALRLCTRLLVFMGAFSVFILWYFGALFSFYGIERHGSALMVFLNSLIFMLATLSLGSFLGAWIKNEAHTTQIVLISSLPLIFMMGFVWPFESLPSYLQVFVQIVPAYHGISLLGRLNQMHAEFIDVSFHFYALIAIFIASFIGSVFKLSSLKKACENA,failed
10,MNFFTSPFSGIPLDQQVTNPNIIVGKHSYYSGYYHGHSFDDCVRYLHPERDDVDKLVIGSFCSIGSGAVFMMAGNQGHRSDWISTFPFFYQDNDNFADARDGFTRSGDTIIGHDVWIGTEAMIMPGVKIGHGAIIASRSVVTKDVAPYEVVGSNPAKHIKFRFSDVEIAMLLEMAWWNWPESWLKESMQSLCSSDIEGLYLNWQSKART,not failed
11,MNFGEAVSSFFRNYVNFSGRASRSEFWYSYLFIIIVGVILVIVDTIVKNEIISSIWNLAALLPTLAMTTRRLHDINRSGWHQLLAWFIPVGSIALIIWYCKKSDDTVTLSEIERVFR,failed
12,MNFPHMIPYNAPYYFVLLIAALLPMILTLAIKGTRWPWYQTLVTLVFLYISFGGEFWQQGVALIVYVIYQTLLTWGYAAYRKNKNAGWVFYLAVFLAILPLVWVKVSPFMTGKTTLLGFLGISYLTFKAVQVVMDLRDGVMKEYHPFRYIQFLLFFPTISSGPIDRYRRFEKDLKNPPSAEKYLDFLEKGIFYLFLGFLYKFIISHYLGGVFLPHVEKMALAQGGLSWWTVGYMYNYSLYLFFDFAGYSLLAVGTSYLMGYDTPMNFNKPFLSWNIKEFWNRWHMTLSFWFRDYIYMRLMFFLMKKKVFKSRIVTSNIGYFALFLIMGIWHGLTWFYIAYGLYHATLICVTDAWLRFKKKHKDKIPSNKFTHAFAVFLTFQAVCVSFLIFSGFLDKLWFK,not failed
13,MNFPIDEKLIREKQNELHIKDLGMASIRDLVALVTNLEKATGTKFCRMEMGVPGLPAPQIGIETEIQKLREGVASIYPNLDGLPELKQEASRFAKLFVNIDIPARACVPTVGSMQGCFVSFLVANRTHKNREYGTLFIDPGFNLNKLQCRILGQKFESFDLFEYRGEKLREKLESYLQTGQFCSIIYSNPNNPTWQCMTDEELRIIGELATKHDVIVIEDLAYFGMDFRKDYSHPGEPLYQPSVANYTDNYILALSSSKAFSYAGQRIGVLMISGKLYEREYPDLEESFGRLRFGEALSSSALYALSSGATHSAQWGMAAMLKACNDGEYNFRDSVIEYGRKARIMKKMFLDNGFNIVYDKDGNEPLADGFYFTVGYKGMDSSKLIEKFVRYGMCAITLKTTGSKRNEAMRICTSLLPESQFPDLEKRLQMLNAEG,not failed
14,MNFVTLTSDEFNAFTTKHFSHYTQSAIHYNHRVDLKGDVHLVGVKDDNGQVIAGCLLTEARTLKFFKYFYTHRGPVMDYTNQSLVAFFFKALTSYLKKHNCLYVLVDPYLIENLRNADGEIVKSYDNRAFVRTMDKLGYKHQGFPVGYDSMSQIRWLSVLDLKDKTEDQLLKEMDYQTRRNIKKTYDIGVKTKTLTIDETQTFFDLFHMAEEKHGFKFRELPYFEEMQKLYDDHAMLKLAYIDLNEYLKTLQLKQQQLTAELSGVEEALEESPNSKKNKTKRTQLEQQLNSNKRKIDNTIEQIEQDGAVLNLASALFIYNEHEVYYLSSGSNPKYNAYMGAYHLQWEMIKFAKAHHIDRYNFYGITGDFSESSEDYGVQQFKKGFNAHVEEYIGDFIKPIKPLLYKVQTYLNHKRR,failed
15,MNGAVDLVIRFLLFAMLHSIAALPGVQQRIGNMFPRGFRFYRAAYNLAALVTFGWVMAAWPLSPVIYLVPGSASLAFHAVQAFTLLQMIRCVSRTGMADFLGIRHPSREDAAHELVTTGCYGTVRHPLYTLAMVFCLFNPLMTVKWLLFTLMAGGYFVMGAVVEERRLEREFGDAYRSYRRQVPMLIPRRRKPVAKE,failed
16,MNGDSKPYPLIVQQVMLFTTHPAHGVKAGMAKALHMIHAGRKVLVFIALLVSASLAMADVAIPPLKARVTDLTGTLSANEATQLEQKLAAFEARKGSQIAVLIVSTTQPETIEQYSIRVVDAWKLGRKGIDDGVLLLVAKQDRTVRVEVGYGLEGVLPDAVAKRITDEIIVPEFRQGRFAAGINAGVDRIIGVIEGEPLPPPPARSARGGDSSAAADILVNNIIFVFILLFIAAKVFQSIFGRFLGATLLSTAAAIIVWLVFASIFLALIAAAFAFFISLFGHAGSGIYRGGRGWPGGFGGYGGWGGRGGPGGFGGGGGFGGGGGGFGGGGASGRW,failed
